Assay results from US20050074821A1 (Amgen, published 2005).

Tests used:
[1] = molecular target: T1, recombinant human NGF 1-120 (human, UniProt P01138 122-241); test: cell-based or functional assay
[2] = molecular target: recombinant rat beta-NGF (R&D Systems) (rat, UniProt P25427 122-241); test: cell-based or functional assay
[3] = molecular target: T2, NGF subtilisin peptide S1 (4.4) SRKAVRR (113-119) (human); test: subtilisin-digested NGF incubated with antibody, Microcon 10 separation, HPLC of bound and unbound fractions
T2 peptide: SRKAVRR

[4] = molecular target: T3, NGF subtilisin peptide S2 (28.3) EVMVL (35-39) (human); test: as above
T3 peptide: EVMVL

[5] = molecular target: T4, NGF Lys-C peptide K2 (39.5) QAAWRFIRIDTACVCVLSRK (human, Cysteine residues were reduced and carboxymethylated); test: Lys-C digest of NGF incubated with antibody, Microcon 100 separation, reversed phase HPLC
T4 construct: Calculated mass 2452; observed mass 2459.5
T4 peptide: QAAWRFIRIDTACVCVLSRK

[6] = molecular target: T1, recombinant human NGF 1-120; test: cell-based or functional assay; remark: listed apart in the source
[7] = molecular target: T1, recombinant human NGF 1-120; test: KinExA; 10 pM and 30 pM Ab 4D4 equilibrated with huNGF in solution for 8 h, free antibody captured on huNGF-coated beads, dual-curve one-site fit
[8] = molecular target: T5, NGF Lys-C peptide K1 (37.6) SSSHPIFHRGEFSVCDSVSVWVGDK (human, Cysteine residues were reduced and carboxymethylated); test: Lys-C digest of NGF incubated with antibody, Microcon 100 separation, reversed phase HPLC
T5 construct: Calculated mass 2821; observed mass 2828.2
T5 peptide: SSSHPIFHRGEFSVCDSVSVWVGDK

[9] = molecular target: T6, synthetic hNGF peptide 33582-27-10 NSVFKQYFFETKARDC (46-60) (human, C-terminal cysteine tail, conjugated to a maleimide activated plate); test: peptide ELISA, Ab binding signal; peptide #10, L2, 46-60
T6 construct: also called Peptide # 10; peptide #10
T6 peptide: NSVFKQYFFETKARDC

[10] = molecular target: T7, synthetic hNGF peptide 33582-27-01 SSSHPIFHRGEFSVC (1-15) (human, conjugated through cysteine to a maleimide activated plate); test: peptide ELISA, Ab binding signal; peptide #1, N-terminus, 1-15
T7 construct: also called Peptide # 1; peptide #1
T7 peptide: SSSHPIFHRGEFSVC

[11] = molecular target: T8, synthetic hNGF peptide 33582-27-20 QAAWRFIRIDTAAVC (96-110) (human, conjugated through cysteine to a maleimide activated plate); test: peptide ELISA, Ab binding signal; peptides # 20-21, C-terminus, 96-115
T8 construct: also called Peptide # 20
T8 peptide: QAAWRFIRIDTAAVC

[12] = molecular target: T9, synthetic hNGF peptide 33582-27-21 FIRIDTAAVAVLSRKC (101-115) (human, C-terminal cysteine tail, conjugated to a maleimide activated plate); test: as above
T9 construct: also called Peptide # 21
T9 peptide: FIRIDTAAVAVLSRKC

[13] = molecular target: T10, synthetic hNGF peptide 33582-27-19 TMDGKQAAWRFIRIDC (91-105) (human, C-terminal cysteine tail, conjugated to a maleimide activated plate); test: peptide ELISA, Ab binding signal; peptide #19, internal, 91-105
T10 construct: also called Peptide # 19; peptide #19
T10 peptide: TMDGKQAAWRFIRIDC

[14] = molecular target: T11, synthetic hNGF peptide 33582-27-18 FVKALTMDGKQAAWRC (86-100) (human, C-terminal cysteine tail, conjugated to a maleimide activated plate); test: ELISA, peptide conjugated to maleimide plate, 4D4.IgG1 at 0, 3, 10, 30 ug/ml, anti-hFc-HRP
T11 construct: also called Peptide # 18
T11 peptide: FVKALTMDGKQAAWRC

[15] = molecular target: T12, synthetic hNGF peptide 33582-27-16 WNSYATTTHTFVKALC (76-90) (human, C-terminal cysteine tail, conjugated to a maleimide activated plate); test: peptide ELISA, Ab binding signal; peptide #16, internal, 76-90
T12 construct: also called Peptide # 16; peptide #16
T12 peptide: WNSYATTTHTFVKALC

[16] = molecular target: T13, synthetic hNGF peptide 33582-27-17 TTTHTFVKALTMDGKC (81-95) (human, C-terminal cysteine tail, conjugated to a maleimide activated plate); test: peptide ELISA, Ab binding signal; peptide #17, L4, 81-95
T13 construct: also called Peptide # 17; peptide #17
T13 peptide: TTTHTFVKALTMDGKC

[17] = molecular target: T1, recombinant human NGF 1-120; test: cell-based or functional assay; remark: listed apart in the source

Sequence of recombinant rat beta-NGF (R&D Systems) (P25427 122-241 limits assumed): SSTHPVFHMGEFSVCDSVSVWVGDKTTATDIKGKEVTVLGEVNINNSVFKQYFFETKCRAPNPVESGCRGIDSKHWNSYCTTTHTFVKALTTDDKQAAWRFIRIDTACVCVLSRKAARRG

B1: anti-NGF antibody 14D11 (antibody, V domains shown)
VH: EVQLVQSGAEVKKPGESLKISCKGSGYNFTTYWIGWVRQMPGKGLEWMGIIYPGDSDTKYSPSFQGQVTISADKSISTAYLQWSSLKASDTAMYYCARNYYGSGTYYYYYGMNVWGQGTTVTVSS
VL: DIQMTQSPSSVSASVGDRVTITCRASQGISIWLAWYQHKPGKAPKLLIYAASSLQSGVPSRFSGSGSGTDFTLTISSLQPEDFATYYCQQANSFPWTFGQGTKVEIK
Work on B1 yielded an IC50 @ hNGF (nM), DRG neuron NGF neutralization assay; clone 14D11 [1] of 0.28 nM and an IC50 @ rNGF (nM), DRG neuron NGF neutralization assay; clone 14D11 [2] greater than 20 nM.

B2: anti-NGF antibody 14D10 (antibody, V domains shown)
VH: EVQLVESGGGLVQPGRSLRLSCTASGFTFEDYAMHWVRQAPGKGLEWVSGISWNRGIIGYADSVKGRFTVSRDNAKNSLYLQMNSLRAEDTALYYCAKEGYYGSGRPGYFYYVMDVWGQGTTVTVSS
VL: EIVLTQSPGTLSLSPGERATLSCRASQSVSSGFLAWFQQKPGQAPRLLIYGASSRATAIPDRFSGSGSGTDFTLTISRLEPEDFAVYYCQQYGSSPYTFGQGTKLEIK
With B2 the IC50 @ hNGF (nM), DRG neuron NGF neutralization assay; clone 14D10 [1] was 0.392 nM and the IC50 @ rNGF (nM), DRG neuron NGF neutralization assay; clone 14D10 [2] was greater than 13 nM.

B3: anti-NGF monoclonal antibody 4D4 (antibody, V domains shown)
VH: EVQLVESGGGLVQPGGSLRLSCAASGFTLRSYSMNWVRQAPGKGLEWVSYISRSSHTIFYADSVKGRFTISRDNAKNSLYLQMDSLRDEDTAMYYCARVYSSGWHVSDYFDYWGQGILVTVSS
VL: AIQLTQSPSSLSASVGDRVTITCRASQGISSALAWYQQKPGKAPKLLIYDASSLESGVPSRFSGSGSGTDFTLTISSLQPEDFATYYCQQFNSYPLTFGGGTKVEIK
notes: also called 4D4.D7; #124 (parent)
B3: binds [3]; binds [4]; binds [5]. The “IC50, inhibition of NGF-induced VR1 expression in rat DRG neurons; sample 119 (from 124)” value [6] was less than 1.2 nM, the “IC50, inhibition of NGF-induced VR1 expression in rat DRG neurons; sample 124 (parent)” value [6] was less than 0.57 nM and the “IC50, inhibition of NGF-induced VR1 expression in rat DRG neurons; sample 125 (from 124)” value [6] was less than 0.3 nM. For the same binder, the “IC50, inhibition of NGF-induced VR1 expression in rat DRG neurons; sample 167 (from same sample as 124)” value [6] was 0.5 nM, the Kd [7] was roughly 0.004 nM and the binding result [8] was “binds”.

B4: 4D4.IgG1 (recombinant anti-NGF 4D4 antibody with IgG1 heavy chain constant region) (antibody, V domains shown)
VH: B3 VH
VL: AIQLTQSPSSLSASVGDRVTITCRASQGISSALAWYQQKPGKAPKLLIYDASSLESGVPSRFSGSGSGTDFTLTISSLQPEDFATYYCQQFNSYPLTFGGGTKVEIKR
notes: also called 4D4.IgG1.S; human anti-hNGF Ab 4D4.IgG1
B4: binds [9]; binds [10]; binds [11]. B4: binds [12]; binds [13]; binds [14]. For the same binder, the binding result [15] was “binds”, the binding result [16] was “binds” and the “IC50 @ rNGF (nM), DRG neuron based NGF neutralization bioassay; 4D4.IgG1.R” value [2] was greater than 34 nM. For the same binder, the “IC50 @ rNGF (nM), DRG neuron based NGF neutralization bioassay; 4D4.IgG1.S” value [2] was greater than 45 nM, the “IC50 @ hNGF (nM), DRG neuron based NGF neutralization bioassay; 4D4.IgG1.R” value [17] was 0.149 nM and the “IC50 @ hNGF (nM), DRG neuron based NGF neutralization bioassay; 4D4.IgG1.S” value [17] was 0.159 nM.
